Laboratory results published in US20230203471A1, “METHOD AND PLATFORM FOR DISRUPTING INTRACELLULAR MICROTUBULES” (National Tsing Hua University, priority 2021, published 2023).
Each block holds one molecule with its values, some of them ahead of it.

Experiments:
[1] = tested on: intracellular microtubules in HeLa cells; experiment: Live-cell imaging of MT disruption (MT filament area) in transfected HeLa cells; format: cell-based
Procedure: The procedures of live-cell imaging are as follows. Live transfected cells cultured on poly(d-lysine)-coated glass coverslips (Hecht Assistent) were treated with either 100 nM rapamycin for rapid induction of protein dimerization and translocation or MT-targeting agents (10 µM nocodazole or 500 µM colchicine) during imaging. Live-cell imaging was conducted on a Nikon T1 inverted fluorescence microscope (Nikon) with a 60× oil objective (Nikon), a Prime camera (Photometrics), and 37° C., 5% CO2 heat stage (Live Cell Instrument). Rapid recruitment of proteins of interest (POIs) was imaged at 5- or 10-sec intervals, whereas the process of MT disruption was imaged at 1-min intervals. Images were obtained using Nikon NIS-Elements AR software and processed with Huygens Deconvolution Software (Scientific Volume Imaging). Image analysis was mainly performed with Nikon NIS-Elements AR software.
The procedures of measurement of MT filament area are as follows. The MT filaments in living cells were labeled with EMTB-CFP-FRB and imaged in real time (RAW image). The rolling ball correction was used to remove the cytosol background from the RAW images, which was carried out with the Nikon NIS-Elements AR software. Images were processed to generate the binary MT filament pattern via the Otsu threshold and analyzed by Fiji software.
FIGS. 2D and 2E show rapidly recruiting engineered spastins onto MTs. […] The top three layers are cells that simultaneously express EMTB-CFP-FRB and dNSpastin3Q-YFP-FKBP. The lower three layers are cells that simultaneously express EMTB-CFP-FRB and dNSpastin-YFP-FKBP-C2Lact. The color bar on the right indicates the brightness value represented by the color of the FRET signal. […] Data are shown as the mean ± S.E.M. It was noteworthy that MT disruption triggered by dNSpastin3Q-YFP-FKBP upon rapamycin treatment (T½ = 11.05 ± 1.52 min) was much faster than that of dNSpastin-YFP-FKBP-C2Lact upon rapamycin treatment (T½ = 53.08 ± 8.08 min), and treatment of two common MTAs, nocodazole (10 µM; T½ = 54.02 ± 10.29 min), colchicine (500 µM; T½ = 94.28 ± 8.63 min; see FIGS. 2F to 2J). […] In FIG. 2H, HeLa cells transfected with the indicated constructs were treated with nocodazole (Noc)([…], a type of MTA), colchicine (Col)(500 µM, a type of MTA), or rapamycin (Rapa)(100 nM); scale bar, 10 µm. […] Data are shown as the mean ± S.E.M. Student’s t-tests were performed, with the resulting p-values indicated.

[2] = molecular target: MT-binding domain of ensconsin-cyan fluorescent protein-FKBP-rapamycin binding domain (EMTB-CFP-FRB) (Artificial Sequence); experiment: FRET live-cell imaging in co-transfected HeLa cells, 100 nM rapamycin
MT-binding domain of ensconsin-cyan fluorescent protein-FKBP-rapamycin binding domain (EMTB-CFP-FRB) (Artificial Sequence), sequence (chain, as listed by the source): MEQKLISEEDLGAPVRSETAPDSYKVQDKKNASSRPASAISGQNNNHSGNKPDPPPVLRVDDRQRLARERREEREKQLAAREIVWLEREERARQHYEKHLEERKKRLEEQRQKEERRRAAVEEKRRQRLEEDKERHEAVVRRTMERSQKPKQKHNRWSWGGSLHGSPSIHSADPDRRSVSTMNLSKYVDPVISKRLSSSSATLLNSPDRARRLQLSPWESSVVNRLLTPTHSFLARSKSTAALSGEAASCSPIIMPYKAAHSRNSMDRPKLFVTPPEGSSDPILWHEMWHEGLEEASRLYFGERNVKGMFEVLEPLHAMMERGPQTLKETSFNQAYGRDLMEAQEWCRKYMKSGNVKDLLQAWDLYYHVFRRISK

[3] = molecular target: intracellular microtubules (MTs)
[4] = tested on: cytosolic MTs in HeLa cells; experiment: Immunofluorescence staining of α-tubulin in HeLa cells expressing spastin constructs; format: cell-based; conditions: expression in HeLa cells, α-tubulin intensity
Procedure: The procedures of immunofluorescence staining are as follows. Cells cultured in borosilicate glass Lab-Tek eight-well chambers (Nunc) were fixed in 4% paraformaldehyde (Electron Microscopy Sciences) at room temperature for 15 min. Fixed cells were permeabilized with 0.1% Triton X-100 and then incubated in blocking solution (phosphate-buffered saline with 2% bovine serum albumin) for 30 min at room temperature. To label cytosolic MTs, primary ciliary membrane, and axonemal MTs, cells were incubated for 1 hr at room temperature with mouse antibody against α-tubulin (1:500; Sigma Aldrich, T6199), rabbit antibody against Arl13b (1:500; Proteintech, 17711-1-AP), mouse antibody against glutamylated tubulin (1:100; Adipogen, AG-20B-0020-C100), mouse antibody against acetylated tubulin (1:500; Sigma Aldrich, T7451), rat antibody against tyrosinated tubulin (1:100; Sigma Aldrich, MAB1864), and mouse antibody against detyrosinated tubulin (1:100; MERCK, AB3201) each of which was diluted in blocking solution. Cells were then washed with PBS and incubated for 1 hr with appropriate secondary antibodies (1:1000 dilution; Thermo Fisher) at room temperature.
Spastin is a MT-cleaving enzyme that is ubiquitous in nearly all eukaryotic cells. Expression of full-length spastin (SpastinFL-YFP; the amino acid sequence of spastin is SEQ ID NO: 1) and truncated spastin without the N-terminal 1-140 amino acids (dNSpastin-YFP) in HeLa cells removed significant amounts of cytosolic MTs, 47.45% and 42.86%, respectively, relative to YFP-transfected control cells (See FIGS. 2A to 2C). This means that both full-length spastin and truncated spastin without N-terminal 1-140 amino acids have the effect on disrupting microtubules. FIGS. 2A to 2C show the microtubule cleavage activity of artificially engineered spastin enzyme. […] The dotted line on the right indicates the periphery of the cell that expresses spastin. […] SpastinFL expressed in cells can disrupt the intracellular microtubules. Making SpastinFL be located in the cytosol, truncated spastin would also disrupt the intracellular microtubules, so it would also be located in the cytosol. […] The truncated spastin is used in the subsequent experiments. […] Compared with the YFP control group, both SpastinFL-YFP and dNSpastrin-YFP can disrupt about 40% of the microtubules. Thus the N-terminal fragment (1-140 amino acids) was dispensable for Spastin-mediated MT severing. […]

[5] = tested on: EMTB-YFP-CIBN-labeled MTs in COS7 cells; experiment: Blue-light-induced recruitment of Cry2 proteins onto EMTB-YFP-CIBN-labeled MTs and MT disassembly; format: cell-based, African green monkey
Procedure: The procedures of photostimulation are as follows. COS7 cells were plated on poly(d-lysine)-coated coverslips and cultured in six-well plates (Thermo Scientific) for 48 hr. Before imaging, cells were incubated with SPY650-tubulin (1000-fold dilution; Spirochrome) at 37° C. for 1 hr. Local photostimulation was carried out with a fluorescence microscope (Nikon) equipped with a digital micromirror device, polygon 400 (MIGHTEX), and a 488-nm light source. Cells were illuminated with the blue light (5 sec on/1 sec off; 1.6 nW/µm^2) for the indicated duration. The mCherry and SPY650-tubulin were simultaneously imaged during photostimulation using Nikon element AR software.
The inventors next tried to use an optogenetic system to trigger MT disassembly in a sub-cellular region of interest during a specific period of time. Cryptochrome 2 (Cry2) (SEQ ID NO:14) and CIBN (N-terminal 170 amino acids of CIB1) (SEQ ID NO:15), two blue light-sensitive dimerizing partners, were used in our MT-manipulating system. Cry2, which was tagged with the red fluorescent protein mCherry (mCh—Cry2), was rapidly translocated onto EMTB—YFP—CIBN-labeled MTs only in regions illuminated with light (T½ = 34.6 ± 7.58 sec) and dissociated from MTs to the cytosol when the light was off (T½ = 28.2 ± 4.88 sec; see FIGS. 6A and 6B).
FIGS. 6A and 6B show using light to disassemble MTs in a reversible and location-specific manner. In FIG. 6A, COS7 cells co-transfected with EMTB—YFP—CIBN and mCh—Cry2 (red) were incubated with SPY650-tubulin (SPY650-tub) to visualize MTs; the cells were illuminated by blue light within a specified region (indicated by the dotted circle) for the indicated time period; scale bar, 10 µm.
The inventors then used light to control spastin-mediated MT disassembly in a spatially and temporally specific manner. dNSpastin3Q tagged with mCh-Cry2 was co-expressed with EMTB—YFP—CIBN in COS7 cells. MTs were labeled with SPY650-tubulin in these experiments.
FIGS. 6C and 6D show using light to disassemble MTs in a reversible and location-specific manner. In FIG. 6C, COS7 cells co-transfected with EMTB-YFP-CIBN and dNSpastin3Q-mCh—Cry2 were incubated with SPY650-tubulin to visualize MTs; the cells were illuminated by blue light as in FIG. 6A; scale bar, 10 µm. […] Data are shown as the mean ± S.E.M.

Molecule: COc1cc2c(c(OC)c1OC)-c1ccc(OC)c(=O)cc1[C@@H](NC(C)=O)CC2 [colchicine]
- microtubules removed within one hour ([1]; 500 µM colchicine): 49%
- time required to disrupt half of the intracellular microtubules ([1]; colchicine 500 µM): 94.28 ± 8.63 min
- T½ of MT disruption ([1]; colchicine 500 µM, HeLa cells): 1.571 ± 0.144 h

B1: YFP-tagged full-length spastin (SpastinFL-YFP) (enzyme)
chain: MAAKRSSGTAPAPASPSPPAPGPGGEAESVRVFHKQAFEYISIALRIDEEEKGQKEQAVEWYKKGIEELEKGIAVIVTGQGEQYERARRLQAKMMTNLVMAKDRLQLLEKLQPVLQFSKSQTDVYNESTNLTCRNGHLQSESGAVPKRKDPLTHASNSLPRSKTVLKSGSAGLSGHHRAPSCSGLSMVSGARPGPGPAATTHKGTPKPNRTNKPSTPTTAVRKKKDLKNFRNVDSNLANLIMNEIVDNGTAVKFDDIAGQELAKQALQEIVILPSLRPELFTGLRAPARGLLLFGPPGNGKTMLAKAVAAESNATFFNISAASLTSKYVGEGEKLVRALFAVARELQPSIIFIDEVDSLLCERREGEHDASRRLKTEFLIEFDGVQSAGDDRVLVMGATNRPQELDEAVLRRFIKRVYVSLPNEETRLLLLKNLLCKQGSPLTQKELAQLARMTDGYSGSDLTALAKDAALGPIRELKPEQVKNMSASEMRNIRLSDFTESLKKIKRSVSPQTLEAYIRWNKDFGDTTV
- removal of cytosolic MTs (normalized intensity of α-tubulin) [3]: 47.5%

B3: dNSpastin3Q-mCh—Cry2: dNSpastin3Q tagged with mCh-Cry2 (protein)
chain: MESGAVPKRKDPLTHASNSLPRSKTVLKSGSAGLSGHHRAPSCSGLSMVSGARPGPGPAATTHKGTPKPNRTNKPSTPTTAVRQQQDLKNFRNVDSNLANLIMNEIVDNGTAVKFDDIAGQELAKQALQEIVILPSLRPELFTGLRAPARGLLLFGPPGNGKTMLAKAVAAESNATFFNISAASLTSKYVGEGEKLVRALFAVARELQPSIIFIDEVDSLLCERREGEHDASRRLKTEFLIEFDGVQSAGDDRVLVMGATNRPQELDEAVLRRFIKRVYVSLPNEETRLLLLKNLLCKQGSPLTQKELAQLARMTDGYSGSDLTALAKDAALGPIRELKPEQVKNMSASEMRNIRLSDFTESLKKIKRSVSPQTLEAYIRWNKDFGDTTVMKMDKKTIVWFRRDLRIEDNPALAAAAHEGSVFPVFIWCPEEEGQFYPGRASRWWMKQSLAHLSQSLKALGSDLTLIKTHNTISAILDCIRVTGATKVVFNHLYDPVSLVRDHTVKEKLVERGISVQSYNGDLLYEPWEIYCEKGKPFTSFNSYWKKCLDMSIESVMLPPPWRLMPITAAAEAIWACSIEELGLENEAEKPSNALLTRAWSPGWSNADKLLNEFIEKQLIDYAKNSKKVVGNSTSLLSPYLHFGEISVRHVFQCARMKQIIWARDKNSEGEESADLFLRGIGLREYSRYICFNFPFTHEQSLLSHLRFFPWDADVDKFKAWRQGRTGYPLVDAGMRELRATGWMHNRIRVIVSSFAVKFLLLPWKWGMKYFWDTLLDADLECDILGWQYISGSIPDGHELDRLDNPALQGAKYDPEGEYIRQWLPELARLPTEWIHHPWDAPLTVLKASGVELGTNYAKPIVDIDTARELLAKAISRTREAQIMIGAA
- reversibility in the dark ([5]; COS7 cells placed back in the dark): MT reassembly occurred
- light-induced MT disassembly ([5]; COS7 cells, local blue light illumination, SPY650-tubulin): disassembly of MTs only in illuminated regions

Continued, in another order:

- T½ of translocation [2]: 5.73 s
Molecule: yellow fluorescent protein-tagged FKBP (YFP-FKBP)

- removal of cytosolic MTs (normalized intensity of α-tubulin) [3]: 42.9%
B2: YFP-tagged truncated spastin without the N-terminal 1-140 amino acids (dNSpastin-YFP) (enzyme)
chain: MESGAVPKRKDPLTHASNSLPRSKTVLKSGSAGLSGHHRAPSCSGLSMVSGARPGPGPAATTHKGTPKPNRTNKPSTPTTAVRKKKDLKNFRNVDSNLANLIMNEIVDNGTAVKFDDIAGQELAKQALQEIVILPSLRPELFTGLRAPARGLLLFGPPGNGKTMLAKAVAAESNATFFNISAASLTSKYVGEGEKLVRALFAVARELQPSIIFIDEVDSLLCERREGEHDASRRLKTEFLIEFDGVQSAGDDRVLVMGATNRPQELDEAVLRRFIKRVYVSLPNEETRLLLLKNLLCKQGSPLTQKELAQLARMTDGYSGSDLTALAKDAALGPIRELKPEQVKNMSASEMRNIRLSDFTESLKKIKRSVSPQTLEAYIRWNKDFGDTTV
- cytosolic MTs removed relative to YFP-transfected control cells [4]: 42.86%
- cytosolic MTs removed relative to YFP-transfected control cells ([4]; listed as dNSpastrin-YFP): about 40%
